In PMC11086168, “Combining the Benefits of Biotin–Streptavidin Aptamer Immobilization with the Versatility of Ni-NTA Regeneration Strategies for SPR”:

Assays:
[1] = target: T1, 6xHis-streptavidin (His-SA) (UniProt P22629 25-183); assay: EMSA; no biotin; 1 µM 29mer; LSPR on Ni-NTA chip with His-SA capture; sample buffer PBS-T (1X PBS, 0.05% Tween 20); immobilization in PBS-T or PBS-I (1X PBS, 300 mM NaCl total, pH 8.0); 20; details: protein: commercial; tags: 6xHis; chain copies: 4
[2] = target: T1, 6xHis-streptavidin (His-SA); assay: EMSA; binding through 5' biotin; LSPR on Ni-NTA chip with His-SA capture; sample buffer PBS-T (1X PBS, 0.05% Tween 20); immobilization in PBS-T or PBS-I (1X PBS, 300 mM NaCl total, pH 8.0); 20; details: protein: commercial; tags: 6xHis; chain copies: 4; label: 5' biotin
[3] = target: T2, thrombin (human plasma, UniProt P00734;P00734 328-363;364-622); assay: SPR (LSPR); Experiment 7; surface immobilized in PBS-I; printed as KA from Hill fit; BSA present; LSPR on Ni-NTA chip with His-SA capture; sample buffer PBS-T (1X PBS, 0.05% Tween 20); immobilization in PBS-T or PBS-I (1X PBS, 300 mM NaCl total, pH 8.0); 20
[4] = target: T2, thrombin; assay: SPR (LSPR); Experiment 8; reused surface of Experiment 7, no new immobilization; printed as KA from Hill fit; BSA present; LSPR on Ni-NTA chip with His-SA capture; sample buffer PBS-T (1X PBS, 0.05% Tween 20); immobilization in PBS-T or PBS-I (1X PBS, 300 mM NaCl total, pH 8.0); 20
[5] = target: T2, thrombin; assay: SPR (LSPR); Experiment 1; PBS-T; printed as KA from Hill fit (half-saturation, in nM); aptamer immobilized on His-SA/Ni-NTA; BSA present; LSPR on Ni-NTA chip with His-SA capture; sample buffer PBS-T (1X PBS, 0.05% Tween 20); immobilization in PBS-T or PBS-I (1X PBS, 300 mM NaCl total, pH 8.0); 20

T1 sequence (P22629 25-183): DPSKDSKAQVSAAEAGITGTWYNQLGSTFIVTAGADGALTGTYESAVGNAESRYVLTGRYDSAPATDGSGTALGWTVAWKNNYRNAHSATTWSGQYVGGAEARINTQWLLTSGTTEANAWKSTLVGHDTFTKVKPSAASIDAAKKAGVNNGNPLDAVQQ

Row | Binder | binding result [1] | binding result [2] | Kd [3] [nM] | Kd [4] [nM] | Kd [5] [nM]
1 | AGTCCGTGGTAGGGCAGGTTGGGGTGACT (structured_DNA) [unlabeled 29mer] | no binding |  |  |  | 
2 | AGTCCGTGGTAGGGCAGGTTGGGGTGACT (structured_DNA, 5' biotin (5Biosg)) [B-29mer (biotinylated thrombin-binding aptamer)] |  | binds | 18.6 | 10.3 | 31.2
